Biological target: T1, CAPS1 (calcium-dependent activator protein for secretion, CADPS) (rat (endogenous in rat brain), UniProt Q62717 1-1289)
T1 construct: CAPS1 (CADPS), endogenous protein of rat brain; Precipitated with a rabbit polyclonal CAPS peptide antibody and eluted with the 21-mer peptide immunogen; source: endogenous, rat brain crude synaptosomal membrane fraction, solubilized in 1% Triton X-100
Experiment: affinity purification with mass spectrometry; CAPS1 immunoprecipitate of detergent extract resolved by SDS-PAGE; Coomassie-stained bands seen in the CAPS1 but not the control immunoprecipitate excised, in-gel digests, LC-MS/MS
Details: partners not purified

T1 sequence (Q62717 whole entry): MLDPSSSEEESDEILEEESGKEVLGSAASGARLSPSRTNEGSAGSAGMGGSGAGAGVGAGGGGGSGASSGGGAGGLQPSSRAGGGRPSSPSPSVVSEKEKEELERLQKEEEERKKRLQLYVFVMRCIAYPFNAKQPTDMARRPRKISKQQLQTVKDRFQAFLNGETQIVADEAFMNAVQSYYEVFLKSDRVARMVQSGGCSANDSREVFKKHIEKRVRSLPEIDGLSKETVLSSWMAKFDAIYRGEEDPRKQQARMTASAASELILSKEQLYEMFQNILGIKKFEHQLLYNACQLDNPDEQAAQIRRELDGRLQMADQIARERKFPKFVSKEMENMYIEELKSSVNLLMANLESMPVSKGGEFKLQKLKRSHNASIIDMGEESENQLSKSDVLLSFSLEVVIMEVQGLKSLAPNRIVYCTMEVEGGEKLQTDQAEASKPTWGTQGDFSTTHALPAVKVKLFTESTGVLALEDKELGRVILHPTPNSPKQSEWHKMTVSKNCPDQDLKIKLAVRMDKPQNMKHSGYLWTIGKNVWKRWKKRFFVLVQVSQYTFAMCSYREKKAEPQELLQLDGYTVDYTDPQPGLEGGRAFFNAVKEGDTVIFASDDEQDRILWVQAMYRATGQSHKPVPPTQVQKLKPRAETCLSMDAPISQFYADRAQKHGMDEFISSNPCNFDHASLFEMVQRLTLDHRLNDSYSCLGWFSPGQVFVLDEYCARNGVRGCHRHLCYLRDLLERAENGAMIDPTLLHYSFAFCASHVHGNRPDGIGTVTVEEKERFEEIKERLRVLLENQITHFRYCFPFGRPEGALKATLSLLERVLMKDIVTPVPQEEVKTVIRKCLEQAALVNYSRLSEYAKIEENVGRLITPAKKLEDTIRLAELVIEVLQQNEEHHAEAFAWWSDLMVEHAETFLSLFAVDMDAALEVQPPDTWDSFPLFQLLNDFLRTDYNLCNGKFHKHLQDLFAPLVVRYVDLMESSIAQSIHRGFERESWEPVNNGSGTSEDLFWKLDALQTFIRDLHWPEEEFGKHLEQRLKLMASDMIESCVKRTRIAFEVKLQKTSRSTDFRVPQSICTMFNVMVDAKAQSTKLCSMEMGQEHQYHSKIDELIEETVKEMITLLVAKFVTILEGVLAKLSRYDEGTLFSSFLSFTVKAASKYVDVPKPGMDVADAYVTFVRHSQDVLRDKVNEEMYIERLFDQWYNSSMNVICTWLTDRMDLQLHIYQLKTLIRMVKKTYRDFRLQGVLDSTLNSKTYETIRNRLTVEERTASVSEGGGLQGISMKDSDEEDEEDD

B1: Rabconnectin3β (Rbcn3β) / WD repeat domain 7 (WDR7) (natural protein, rat (endogenous in rat brain), UniProt Q9ERH3 1-1488, looked up)
chain: MAGNSLVLPIVLWGRKAPTHCISSILLTDDGGTIVTGCHDGQICLWDLSEELEVNPRALLFGHTAAITCLSKACASGDKQYTVSASANGEMCLWDVNDGRCIEFTKLACTHTGIQFYQFSVGNQREGRLLCHGHYPEILVVDATSLEVLYSLVSKISPDWISSMSIIRSHRTQEDTVVALSVTGILKVWIVTSEISGLQDTEPIFEEESKPIYCQNCQSLSFCAFTQRSLLVVCSKYWRVFDAGDYSLLCSGPSEDGQTWTGGDFVSADKVIIWTENGQSYIYKLPASCLPASDSFRSDVGKAVENLIPPVQHSLLDQKDRELVICPPVTRFFYGCKEYLHKLLIQGDSSGRLSIWNIADIADKQEANEGLKTTTCISLQDAFDKLKPCPAGIIDQLSVIPNSNEPLKVTASVYIPAHGRLVCGREDGSIIIVPATQTAIVQLLQGEHMLRRGWPPHRTLRGHRNKVTCLLYPHQVSARYDQRYLISGGVDFSVIIWDIFSGEMKHIFCVHGGEITQLLVPPENCSARVQHCVCSVASDHSVGLLSLREKKCIMLASRHLFPIQVIKWRPSDDYLVVGCTDGSVCVWQMDTGALDRCAMGITAVEILNACDEAVPAAVDSLSHPAVNLKQAMTRRSLAALKNMAHHKLQTLATNLLASEASDKGNLPKYSHNSLMVQAIKTNLTDPDIHVLFFDVEALIIQLLTEEASRPNTALISPENLQKASGSSDKGGSFLTGKRAAVLFQQVKETIKENIKEHLLDEEEDEEEVMRQRREESDPEYRASKSKPLTLLEYNLTMDTAKLFMSCLHAWGLNEVLDEVCLDRLGMLKPHCTVSFGLLSRGGHMSLMLPGYNQAAGKLLQAKAEAGRKGPATESVGKGTYTVSRAVTTQHLLSIISLANTLMSMTNATFIGDHMKKGPTRPPRPGTPDLSKARDSPPASSNIVQGQIKQAAAPVSARSAADHSGSASASPALRTCFLVNEGWSQLAAMHCVMLPDLLGLGKFRPPLLEMLARRWQDRCLEVREAAQALLLAELRRIEQAGRKETIDTWAPYLPQYMDHVISPGVTAEAMQTMAAAPDASGPEAKVQEEEHDLVDDDITTGCLSSVPQMKKMSTSYEERRKQATAIVLLGVIGAEFGAEIEPPKLLTRPRSSSQIPEGFGLTSGGSNYSLARHTCKALTFLLLQPPSPKLPPHSTIRRTAIDLIGRGFTVWEPYMDVSAVLMGLLELCADAEKQLANITMGLPLSPAADSARSARHALSLIATARPPAFITTIAKEVHRHTALAANTQSQQSIHTTTLARAKGEILRVIEILIEKMPTDVVDLLVEVMDIIMYCLEGSLVKKKGLQECFPAICRFYMVSYYERSHRIAVGARHGSVALYDIRTGKCQTIHGHKGPITAVSFAPDGRYLATYSNTDSHISFWQMNTSLLGSIGMLNSAPQLRCIKTYQVPPVQPASPGSHNALRLARLIWTSNRNVILMAHDGKEHRFMV
notes: Rabconnectin3β / WDR7, endogenous protein of rat brain; also called Rabcn3β; Rbcn3β/WDR7; source: endogenous, rat brain crude synaptosomal membrane fraction, solubilized in 1% Triton X-100
stoichiometry relative to CAPS1 (bands of the immunoprecipitate): 0.167 Rbcn3 subunit : CAPS1

From article PMC6579465, “The priming factor CAPS1 regulates dense-core vesicle acidification by interacting with rabconnectin3β/WDR7 in neuroendocrine cells” (The Journal of Biological Chemistry, 2019)
